Data: US20030232009A1
Substitutions are numbered along the chain they refer to.

B1: antibody in the supernatant of B cell culture well 170B8 (antibody, V domains shown)
VH: AVQLLESGGGLIQPGGSLRLSCAASGFTFSSYAMSWVRQAPGKGLEWVSAISGSGGSTFYADSVRGRFTISRDNSKNTLYLQMNSLRVEDTAVYYCAKEVMGPIFFDYWGQGTLVTVSS
VL: EIVLTQSPGTLSLSPGERATLSCRASQSIISSALAWYQQKPGQAPRLLIYGASSRATGIPDRFSGSGSGTDFTLTISRLEPEDFAVYHCQQYGSTPLTFGGGTKVEIK
B2: antibody in the supernatant of B cell culture well 250F2 (antibody, V domains shown)
VH: QVQLVESGGDLVKPGGSLRLSCAASGFSFSGYYLSWIRQAPGKGLEWVSYISLSGSFIKYADSVKGRFTISRDNAKKTLHLQMNSLRAEDTAVYYCARRTGTTTVFDYWGQGTLVTVSS
VL: EVVMTQSPATLSVSPGERATLSCRASQSVNSNLAWYQQRPGQAPRLLIYGASTRVTGIPARFSGSGSGTEFTLTISSLQSEDFAVYYCQQYNNWPLTFGGGTKVEIK
B3: antibody in the supernatant of B cell culture well 283B2 (antibody, V domains shown)
VH: QVQLVESGGGLVKPGGSLRLSCAASGFTFNVYYMNWIRQAPGKGLEWVSYISTSSSAIYYADSVKGRFTISRDNAKNSLYLQMNSLRAEDTAVYYCARRTGSTTVFDYWGQGTLVTVSS
VL: B2 VL with V2I, M4L, V29I, S31N, R39K, V55A, R61K, D82N, N93K

target: Human 20.2 + 18mer; experiment: ELISA, well supernatant on coated peptides

Compared with B1, B2 is lower in ELISA reading: 1.7 for the first, 0.4 for the second.

In the case of B3, the ELISA reading is reported as 0.5.
